Assay results published in FireProtDB (doi:10.1110/ps.8.9.1843).

Conditions: CD, whole UniProt chain shown; for denaturant m value / denaturant midpoint (higher = more stable): Aspergillus oryzae (strain ATCC 42149 / RIB 40), 25 °C, Urea
[1] = Kitasatospora aureofaciens, pH 7, Thermal, MOPS 30 mM

| Protein | Tm [1] [°C] | unfolding enthalpy (van 't Hoff) [1] [kcal/mol] | denaturant m value (pH 2.5, glycine 30 mM) [kcal/mol/M] | denaturant midpoint (higher = more stable) (pH 2.5, glycine 30 mM) [M] | denaturant m value (pH 7, MOPS 30 mM) [kcal/mol/M] | denaturant midpoint (higher = more stable) (pH 7, MOPS 30 mM) [M] |
| --- | --- | --- | --- | --- | --- | --- |
| Guanyl-specific ribonuclease Sa wild type, P05798 (protein) DVSGTVCLSALPPEATDTLNLIASDGPFPYSQDGVVFQNRESVLPTQSYGYYHEYTVITPGARTRGTRRIITGEATQEDYYTGDHYATFSLIDQTC | 47.2 | 91 | – | – | – | – |
| Guanyl-specific ribonuclease T1 wild type, P00651 (protein) MMYSKLLTLTTLLLPTALALPSLVERACDYTCGSNCYSSSDVSTAQAAGYQLHEDGETVGSNSYPHKYNNYEGFDFSVSSPYYEWPILSSGDVYSGGSPGADRVVFNENNQLAGVITHTGASGNNFVECT | – | – | 1.59 | 3.66 | 1.23 | 5.23 |
